These results are taken from PMC4476238 (Journal of immunology (Baltimore, Md. : 1950), 2015).

In this experiment the target is T1, Pep 4 (synthetic Phl p 1-derived peptide) (Phleum pratense (timothy grass)).
T1 chain: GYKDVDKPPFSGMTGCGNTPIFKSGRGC
Nature of the experiment: ELISA. For orientation: In an ELISA, binding on a coated surface is turned into a signal by an enzyme label.

B1: ScFv 25VH/25VL (ScFv engineered from the V regions of the Phl p 1-specific IgE Fab clone 25) (scFv, V domains shown)
VH: LESGGGLVQPGGSLRLSCAASGFTFDDHAMHWVRQTPEKGLQWVSGISWNSGVVAYADSVKGRFSISRDNAKNSLYLQMNNLIPEDTAVYYCVRDFRAASPYFFDYWGQGTRVTVSS
VL: ELTQSPSSLSASVGDRVTITCRASQSIGNYLNWYQQKPGKAPNLLIYAASSLQSGVPSRFSGSGSGTDFTLTISSLQREDFATYYCQQSNRTPITFGQGTRLEIK
With B1, the binding result is reported as “no binding”.

B2: P1 IgG1 (complete human monoclonal IgG1 Ab with the V regions of IgE Fab clone 25) (antibody, V domains shown)
VH: B1 VH
VL: B1 VL
On to B2, for which the binding result is “no binding”.
